# How the values were obtained:
# rhPD-L1 = rhPD-L1 (human, UniProt Q9NZQ7); experiment: ELISA
# SSTR4 = SSTR4 (human, UniProt P31391); experiment: FACS, membrane proteome array titration
# PD-L1 [1] = molecular target: T1, PD-L1 (human, UniProt Q9NZQ7); experiment: competition, FACS blocking of biotin-PD-1, 4C
# PD-L1 [2] = molecular target: T1, PD-L1; experiment: FACS, 4C
# T1 sequence (Q9NZQ7 19-238): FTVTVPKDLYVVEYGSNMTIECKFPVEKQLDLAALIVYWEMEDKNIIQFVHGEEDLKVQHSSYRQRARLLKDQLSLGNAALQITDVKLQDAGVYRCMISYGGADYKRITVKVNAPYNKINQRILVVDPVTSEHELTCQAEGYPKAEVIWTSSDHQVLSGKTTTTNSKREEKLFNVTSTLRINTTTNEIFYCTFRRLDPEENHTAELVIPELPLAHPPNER
# rhPD-L1, sequence (Q9NZQ7 19-238): as above
# SSTR4, sequence (P31391 whole entry): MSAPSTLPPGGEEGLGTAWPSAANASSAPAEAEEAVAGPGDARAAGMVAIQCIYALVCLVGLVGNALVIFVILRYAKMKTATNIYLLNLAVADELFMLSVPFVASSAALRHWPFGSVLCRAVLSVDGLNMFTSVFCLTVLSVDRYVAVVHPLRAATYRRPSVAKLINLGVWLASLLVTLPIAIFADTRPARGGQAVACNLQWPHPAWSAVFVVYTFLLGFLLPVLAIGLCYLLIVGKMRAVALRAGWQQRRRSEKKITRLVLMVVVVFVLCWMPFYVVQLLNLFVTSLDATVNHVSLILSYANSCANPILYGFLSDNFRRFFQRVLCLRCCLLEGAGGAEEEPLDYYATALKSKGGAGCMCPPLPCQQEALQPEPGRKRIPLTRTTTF
Kd (rhPD-L1),binding result (SSTR4),EC50 (PD-L1 [1]),Kd (PD-L1 [2]),Binder
0.036 µg/mL,no binding,0.058 µg/mL,0.058 µg/mL,"TCRC-L8 (antibody, V domains shown) VH: QVQLQESGPGLVKPSETLSLTCTVSGDSITSGYWNWIRQPPGKGLEYMGYISFTGSTYYNPSLKSRVTISVDTSKNQFSLKLSSVTAADTAVYYCARKREWILHPMDYWGQGTLVTVSS VL: AIQLTQSPSSLSASVGDRVTITCSASSSVSYMHWYQQKPGKAPKLWIYDTSKLASGVPSRFSGSGSGTDFTLTISSLQPEDFATYYCFQESGYPLTFGGGTKLTVL"
0.04 µg/mL,,0.074 µg/mL,0.074 µg/mL,"TCRC-L2 (antibody, V domains shown) VH: EVQLQESGPSLVKPSQTLSLTCSVTGDSITSGYWNWIRKFPENKLEYMGYISFTGSTYYNPSLKSRISITRDTSKNQYYLQLNSVTTEDTATYYCARKREWILHPMDYWGQGTSVTVSS VL: ENVLTQSPAIMSASPGEKVTMTCSASSSVSYMHWYQQKSLTSPKLWIYDTSKLASGVPGRFSGSGSGNFYSLTISSMEAEDVATYYCFQESGYPLTFGAGTKLELK"
